We go through one molecule from US20260275312, “CRISPR NUCLEASE POLYPEPTIDES AND GENE EDITING SYSTEMS COMPRISING SUCH” (ARBOR BIOTECHNOLOGIES, INC., published 2026).

Substitutions are numbered along the chain they refer to.

Series [1] deals with T1, Nuclease S D844R (synthetic construct, D844R).
T1 chain: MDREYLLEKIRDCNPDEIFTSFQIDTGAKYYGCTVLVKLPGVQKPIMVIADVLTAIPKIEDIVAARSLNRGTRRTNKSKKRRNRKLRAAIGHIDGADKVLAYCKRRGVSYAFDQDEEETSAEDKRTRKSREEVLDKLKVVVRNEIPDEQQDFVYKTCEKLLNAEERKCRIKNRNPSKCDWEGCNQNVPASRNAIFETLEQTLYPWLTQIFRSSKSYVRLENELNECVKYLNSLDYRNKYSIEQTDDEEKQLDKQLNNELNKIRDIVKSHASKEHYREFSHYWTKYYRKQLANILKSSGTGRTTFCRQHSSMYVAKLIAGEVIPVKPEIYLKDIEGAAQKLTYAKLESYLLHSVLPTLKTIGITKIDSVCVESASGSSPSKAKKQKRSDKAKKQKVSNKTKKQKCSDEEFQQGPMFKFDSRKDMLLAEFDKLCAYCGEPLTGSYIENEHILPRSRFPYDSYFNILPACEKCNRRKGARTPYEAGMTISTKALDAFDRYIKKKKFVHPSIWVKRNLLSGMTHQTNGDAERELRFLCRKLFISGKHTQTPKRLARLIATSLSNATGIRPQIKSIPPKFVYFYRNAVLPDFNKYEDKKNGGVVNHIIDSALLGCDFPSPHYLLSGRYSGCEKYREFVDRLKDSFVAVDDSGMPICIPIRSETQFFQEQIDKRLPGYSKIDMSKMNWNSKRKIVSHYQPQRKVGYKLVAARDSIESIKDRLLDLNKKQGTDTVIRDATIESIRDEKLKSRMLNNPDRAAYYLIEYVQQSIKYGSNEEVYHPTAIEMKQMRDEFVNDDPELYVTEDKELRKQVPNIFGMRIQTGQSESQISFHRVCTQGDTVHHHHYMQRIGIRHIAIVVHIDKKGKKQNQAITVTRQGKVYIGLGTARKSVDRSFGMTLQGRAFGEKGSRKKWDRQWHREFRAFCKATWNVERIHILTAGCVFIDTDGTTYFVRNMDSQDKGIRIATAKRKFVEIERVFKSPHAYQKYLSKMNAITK
The experiment in a line: cell_activity; HEK293T; PAM AACC. The settings on record: tags: N-term SV40 NLS, XTEN linker + C-term nucleoplasmin NLS. The protocol: (§1) HEK293T cells were transfected with plasmids expressing the Nuclease S polypeptides and the gRNAs provided herein following the methods provided in Example 1 above. Gene editing efficiencies were determined by NGS following the methods also provided in Example 1. The NGS results were analyzed also following the methods provided in Example 1 above.
(§2) For each target, indel ratios, referring to the percentage of NGS reads comprising indels, were calculated for the reference and for each variant. The indel ratios used for fold change calculations were the average of two technical replicates. To then calculate fold change in indel ratios at a particular target, the indel ratio for each variant was divided by the indel ratio for the reference. […] Numbering is relative to the reference nuclease of SEQ ID NO: 49 (i.e., without an NLS). […] The average fold change in indel ratio for the D844R variant at all targets was 5.27 times that of the indel ratio for the reference at all targets.

Series [2] deals with T2, Nuclease S D179R (synthetic construct, D179R).
T2 chain: T1 chain with D179R, R844D
The series can be described thus: cell_activity; HEK293T; PAM AACC. As to conditions: tags: N-term SV40 NLS, XTEN linker + C-term nucleoplasmin NLS. The protocol: as §1, §2

B1: S AAVS1-T7 RNA guide ; AAVS1-T7 target (S) (ssRNA ; dsDNA)
RNA: GGCUAUAAUCCAUGCUGACCGUUGUAUUCGGAUGGGAGUAAAAGGUUGAGUACACCUGGAAACAAAACGACAUAAAGGUGUUCUCCCAUCUGUGUACAAAGAGCAGAUAUAUGAGUUGAUAAGUAAUAUGUUGCACGUAUGGACUUUGACAGUCUGUACCUCUGCGUGAAAGACAUAUUGCGUUAUUCAUAUAUCUGUGAGUCUGUUCUAAAUUUAAAGGUUUAGGGAA
DNA 1: GGCTATAATCCATGCTGACC
DNA 2: GGTCAGCATGGATTATAGCC
As to B1, the “fold change in indel ratio vs reference” value in series [1] is 6.37 fold indel vs reference; in series [2], 6.38 fold indel vs reference.
